Measurements from patent US20150320880A1, “ANTIBODY DRUG CONJUGATES” (NOVARTIS AG, priority 2013, published 2015).

What was measured:
[1] = target: T1, Human cKIT D1-5 (human cKIT tr. variant 2, residues 26-520, C-terminal His tag) (human, UniProt P10721 26-524); experiment: SPR (Biacore 2000), antibody captured on anti-human Fc, cKIT ECD as analyte, 25 C, 1:1 fit
T1 construct: also called human cKIT ECD; Human c-Kit ECD

SCF binding to cKIT = SCF binding to cKIT (Homo sapiens, UniProt P10721); experiment: Competition assays (ELISA and FACS) of SCF binding to cKIT
[2] = target: T2, Mouse cKIT ECD, C-terminal 6x His (Sino Biological Inc, catalog number 50530-M08H) (mouse, UniProt P05532 25-527); experiment: SPR (Biacore 2000), antibody captured on anti-human Fc
T2 construct: extracellular domain; Bought protein
T2 sequence (looked up): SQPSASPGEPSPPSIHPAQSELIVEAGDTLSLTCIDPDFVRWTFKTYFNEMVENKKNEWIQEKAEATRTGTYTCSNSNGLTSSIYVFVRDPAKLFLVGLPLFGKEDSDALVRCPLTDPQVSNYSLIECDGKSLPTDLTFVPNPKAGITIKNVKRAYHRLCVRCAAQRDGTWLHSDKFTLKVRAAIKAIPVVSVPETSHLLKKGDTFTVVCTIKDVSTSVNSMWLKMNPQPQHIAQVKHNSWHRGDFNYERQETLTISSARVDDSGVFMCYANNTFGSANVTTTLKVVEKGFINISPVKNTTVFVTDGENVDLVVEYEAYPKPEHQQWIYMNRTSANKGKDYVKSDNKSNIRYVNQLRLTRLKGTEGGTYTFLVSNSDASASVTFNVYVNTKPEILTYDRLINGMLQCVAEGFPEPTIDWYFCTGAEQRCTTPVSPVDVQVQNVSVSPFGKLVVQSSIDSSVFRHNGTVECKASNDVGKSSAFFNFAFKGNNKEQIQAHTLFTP

[3] = target: T3, Rat cKIT D1-5 (residues 25-526, C-terminal mFc) (rat); experiment: as above
T3 construct: The entry includes the linker and mouse Fc tag; also called rat cKIT-mFc
T3 chain: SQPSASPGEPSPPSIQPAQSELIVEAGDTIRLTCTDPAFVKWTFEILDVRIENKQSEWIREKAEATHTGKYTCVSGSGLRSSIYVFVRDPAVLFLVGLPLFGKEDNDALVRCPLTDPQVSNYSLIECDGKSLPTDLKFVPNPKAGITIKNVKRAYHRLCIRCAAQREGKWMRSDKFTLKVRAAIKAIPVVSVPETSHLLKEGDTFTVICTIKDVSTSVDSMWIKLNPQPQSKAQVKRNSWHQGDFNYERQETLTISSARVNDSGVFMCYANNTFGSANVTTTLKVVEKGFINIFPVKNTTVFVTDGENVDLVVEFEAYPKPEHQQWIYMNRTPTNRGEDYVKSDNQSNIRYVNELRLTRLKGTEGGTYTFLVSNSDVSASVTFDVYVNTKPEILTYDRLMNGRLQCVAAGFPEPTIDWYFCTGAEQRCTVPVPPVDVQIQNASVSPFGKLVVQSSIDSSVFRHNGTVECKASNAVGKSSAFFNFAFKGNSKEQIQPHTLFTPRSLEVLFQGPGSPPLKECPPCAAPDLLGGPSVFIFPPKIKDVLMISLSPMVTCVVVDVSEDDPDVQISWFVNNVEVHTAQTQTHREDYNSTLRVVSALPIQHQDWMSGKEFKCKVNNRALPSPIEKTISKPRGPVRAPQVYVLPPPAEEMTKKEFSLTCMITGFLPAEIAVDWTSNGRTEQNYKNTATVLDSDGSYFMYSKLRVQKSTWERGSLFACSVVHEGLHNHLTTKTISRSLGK

mouse cKIT ECD = experiment: SPR (Biacore 2000) affinity measurement; format: binding; details: 25° C.
Protocol: (§1) Affinity of the antibodies to cKIT species orthologues and also to cKIT was determined using SPR technology using a Biacore® 2000 instrument (GE Healthcare, Pittsburgh, Pa.) and with CM5 sensor chips.
(§2) Briefly, HBS-P (0.01 M HEPES, pH 7.4, 0.15 M NaCl, 0.005% Surfactant P20) supplemented with 2% Odyssey® blocking buffer (Li-Cor Biosciences, Lincoln, Nebr.) was used as the running buffer for all the experiments. The immobilization level and analyte interactions were measured by response unit (RU). Pilot experiments were performed to test and confirm the feasibility of the immobilization of the anti-human Fc antibody (Catalog number BR100839, GE Healthcare, Pittsburgh, Pa.) and the capture of the test antibodies.
(§3) For kinetic measurements, the experiments were performed in which the antibodies were captured to the sensor chip surface via the immobilized anti-human Fc antibody and the ability of the cKIT proteins to bind in free solution was determined Briefly, 25 μg/ml of anti-human Fc antibody at pH 5 was immobilized on a CM5 sensor chip through amine coupling at flow rate of 5 μl/minute on all two flow cells to reach 10,500 RUs. 0.1-1 μg/ml of test antibodies were then injected at 10 μl/min for 1 minute. Captured levels of the antibodies were generally kept below 200 RUs. Subsequently, 3.125-50 nM of cKIT receptor extracellular domains (ECD) were diluted in a 2-fold series and injected at a flow rate of 40 μl/min for 3 min over both reference and test flow cells. Table of tested ECDs is listed below. Dissociation of the binding was followed for 10 min. After each injection cycle, the chip surface was regenerated with 3 M MgCl2 at 10 μl/min for 30 s.

human cKIT ECD = target: T4, human cKIT ECD (Homo sapiens, UniProt P10721); experiment: SPR (Biacore 2000) affinity measurement; format: binding; details: 25° C.
T4 construct: Human cKIT tr. variant 2, residues 26-520-TAG; made in house; host or cells: HEK293 derived cell lines (293FS), transient transfection
Protocol: as §1, §2, §3

[4] = tested on: GIST T1 subcutaneous tumor xenograft; details: Example 28, single i.v. dose: 9P3 10 mg/kg, IgG1-MCC-DM1 5 mg/kg, IgG1-SPDB-DM4 10 mg/kg, 9P3-MCC-DM1 5 and 10 mg/kg, 9P3-SPDB-DM4 2.5 and 5 mg/kg
Protocol: The anti-tumor activity of anti-cKIT ADCs was evaluated in several tumor xenograft models.

T4 sequence (P10721 with tags, fused parts or gaps isoform P10721-2): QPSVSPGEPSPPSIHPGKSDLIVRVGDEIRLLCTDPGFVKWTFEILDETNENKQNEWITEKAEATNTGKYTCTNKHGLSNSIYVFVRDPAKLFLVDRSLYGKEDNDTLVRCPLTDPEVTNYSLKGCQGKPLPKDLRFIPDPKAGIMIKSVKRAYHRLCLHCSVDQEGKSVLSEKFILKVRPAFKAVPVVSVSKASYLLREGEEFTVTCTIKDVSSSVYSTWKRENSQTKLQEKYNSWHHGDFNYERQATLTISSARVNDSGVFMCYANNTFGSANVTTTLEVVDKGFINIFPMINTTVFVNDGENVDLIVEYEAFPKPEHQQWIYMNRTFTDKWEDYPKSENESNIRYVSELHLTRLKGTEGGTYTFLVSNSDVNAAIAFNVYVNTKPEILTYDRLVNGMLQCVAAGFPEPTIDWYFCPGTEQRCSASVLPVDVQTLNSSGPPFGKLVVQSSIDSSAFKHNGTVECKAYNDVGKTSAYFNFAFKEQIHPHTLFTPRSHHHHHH
T1 sequence (P10721 other isoform, or with tags, fused parts or gaps mutant limits assumed): as the sequence (P10721 with tags, fused parts or gaps isoform P10721-2) above
Sequence of SCF binding to cKIT (P10721 26-524 limits assumed): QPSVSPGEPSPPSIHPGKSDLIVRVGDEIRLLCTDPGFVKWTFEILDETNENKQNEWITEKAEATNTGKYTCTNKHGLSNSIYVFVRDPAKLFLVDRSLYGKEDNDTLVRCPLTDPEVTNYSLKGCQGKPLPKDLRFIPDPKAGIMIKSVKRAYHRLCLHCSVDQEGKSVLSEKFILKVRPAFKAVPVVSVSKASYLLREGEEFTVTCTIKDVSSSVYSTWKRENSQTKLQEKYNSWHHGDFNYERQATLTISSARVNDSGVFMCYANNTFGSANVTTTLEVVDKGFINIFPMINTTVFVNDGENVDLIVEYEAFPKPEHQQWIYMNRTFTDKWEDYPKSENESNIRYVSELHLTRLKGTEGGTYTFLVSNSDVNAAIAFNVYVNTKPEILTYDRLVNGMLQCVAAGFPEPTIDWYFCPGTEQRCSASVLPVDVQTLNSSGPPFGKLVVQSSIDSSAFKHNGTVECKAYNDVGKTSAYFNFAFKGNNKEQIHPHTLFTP

B1: anti-cKIT antibody 9P3 (antibody, V domains shown)
VH: EVRLVESEGGLVQPRSSMKLSCTASGFTFSDYYMAWVRQVPEKGLEWVANINYDGSSTYYLDSLKSRFIISRDNAKNILYLQMSSLKSEDTATYYCARGDYYGTTYWYFDVWGTGTTVTVSS
VL: DIQMTQTTSSLSASLGDRVTISCRASQDISNYLNWYQQKPDGTVKLLIYYTSRLQSGVPSRFSGSGSGTDYSLTISNLEQEDIATYFCQQGKKLWSFGGGTKLEIKR
notes: Hybridoma-derived mouse variable domains; also called murine 9P3
In the case of B1, the Kd [1] is reported as 20 nM, the “blocking of SCF binding to cKIT” value (SCF binding to cKIT) is reported as “partial blocking of SCF binding to cKIT” and the binding result [2] is reported as “no binding (tested: 3.125-50 nM of cKIT ECD injected)”. For the same molecule, the binding result [3] was “no binding (tested: 3.125-50 nM of cKIT ECD injected)”, the “Affinity mouse cKIT (nM)” value (mouse cKIT ECD) was “Not reactive” and the “Affinity human cKIT (nM)” value (human cKIT ECD) was “nanomolar level”. For the same molecule, the “anti-tumor activity (tumor volume)” value [4] was “Neither the control non-specific IgG1 ADCs nor the unconjugated 9P3 were efficacious”.
